The target in one assay is T1, human CLDN5 (human, UniProt O00501 1-218).
T1 construct: whole, on cells
T1 sequence (looked up): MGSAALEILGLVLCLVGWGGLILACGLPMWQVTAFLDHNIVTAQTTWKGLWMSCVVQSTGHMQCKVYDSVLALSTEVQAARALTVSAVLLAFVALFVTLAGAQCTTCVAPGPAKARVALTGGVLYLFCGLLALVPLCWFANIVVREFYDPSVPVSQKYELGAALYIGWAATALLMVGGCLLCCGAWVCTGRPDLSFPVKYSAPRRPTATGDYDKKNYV
The assay is described as follows: flow cytometry on transfected cells.

The next assay concerns the target T2, human CLDN8 (human, UniProt P56748 1-225).
T2 construct: whole, on cells
T2 sequence (looked up): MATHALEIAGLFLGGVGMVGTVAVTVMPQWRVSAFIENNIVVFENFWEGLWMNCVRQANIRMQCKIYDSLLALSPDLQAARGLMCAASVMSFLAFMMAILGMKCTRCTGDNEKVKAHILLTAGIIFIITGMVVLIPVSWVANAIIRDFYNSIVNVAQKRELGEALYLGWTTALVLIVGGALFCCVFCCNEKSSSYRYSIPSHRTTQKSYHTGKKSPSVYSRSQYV
The assay is described as follows: flow cytometry on transfected cells. Background: A flow cytometer gives signals particle by particle.

A further assay deals with T3, human CLDN17 (human, UniProt P56750 1-224).
T3 construct: whole, on cells
T3 sequence (looked up): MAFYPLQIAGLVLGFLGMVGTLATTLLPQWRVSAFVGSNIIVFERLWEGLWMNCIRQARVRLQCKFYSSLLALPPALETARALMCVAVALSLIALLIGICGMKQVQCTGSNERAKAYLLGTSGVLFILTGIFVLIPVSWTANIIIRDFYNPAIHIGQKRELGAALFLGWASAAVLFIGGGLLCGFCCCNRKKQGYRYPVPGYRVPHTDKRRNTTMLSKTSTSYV
As to the kind of experiment: flow cytometry on transfected cells.

The target in a further assay is T4, mouse CLDN6 (mouse, UniProt Q9Z262 1-219).
T4 construct: whole, on cells; also called murine CLDN6
T4 sequence (looked up): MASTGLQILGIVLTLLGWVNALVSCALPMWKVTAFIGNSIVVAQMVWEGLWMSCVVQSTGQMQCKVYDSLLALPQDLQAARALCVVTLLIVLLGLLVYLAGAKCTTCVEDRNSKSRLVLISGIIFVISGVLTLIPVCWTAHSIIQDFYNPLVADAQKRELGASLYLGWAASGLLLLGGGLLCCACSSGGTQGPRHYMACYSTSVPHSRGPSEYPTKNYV
The assay is described as follows: flow cytometry on transfected HEK293E cells. On the procedure: (§1) The following experiments used to screen CLDN6 binding domains were generally performed as follows. HEK293T or HEK293E cells were respectively stably or transiently transfected to express CLDN6, CLND9, or other targets of interest. 48 hours post transfection, cells were harvested and incubated with dilutions of the indicated test articles for 1 hour at 4° C. […] Binding was then assessed via flow cytometry.

Another assay deals with T5, human CLDN6 (human, UniProt P56747 1-220).
T5 construct: also called Claudin 6
T5 sequence: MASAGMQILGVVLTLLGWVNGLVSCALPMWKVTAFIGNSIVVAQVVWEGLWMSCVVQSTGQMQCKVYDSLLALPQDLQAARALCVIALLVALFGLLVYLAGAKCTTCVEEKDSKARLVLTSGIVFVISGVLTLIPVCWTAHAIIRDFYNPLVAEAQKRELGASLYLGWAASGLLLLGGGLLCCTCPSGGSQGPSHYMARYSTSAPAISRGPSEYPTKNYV
As to the kind of experiment: flow cytometry on transfected HEK293E cells. On the procedure: as §1

A further assay addresses T6, CLDN6 I143V isotype (human, UniProt P56747 1-220).
T6 chain: T5 sequence with I143V
The assay is described as follows: flow cytometry on transfected HEK293E cells. The method, then: as §1

Changes are numbered by the printed parent chain.

B1: XENP34233 (C6-30_H1L1 x CD3 bsAb in the 2+1 Fab2-scFv-Fc format) (bispecific antibody)
heavy 1: QVQLVQSGAEVKKPGASVKVSCKTSGYTFTEYTMHWVRQAPGQSLEWMGGIDPNNGNTHYNQKFQGRVTITVDKSASTAYMELSSLRSEDTAVYYCARIYYFGRLYFDFWGAGTLVTVSSASTKGPSVFPLAPSSKSTSGGTAALGCLVKDYFPEPVTVSWNSGALTSGVHTFPAVLQSSGLYSLSSVVTVPSSSLGTQTYICNVNHKPSDTKVDKKVEPKSCDKTHTCPPCPAPPVAGPSVFLFPPKPKDTLMISRTPEVTCVVVDVKHEDPEVKFNWYVDGVEVHNAKTKPREEEYNSTYRVVSVLTVLHQDWLNGKEYKCKVSNKALPAPIEKTISKAKGQPREPQVYTLPPSREEMTKNQVSLTCDVSGFYPSDIAVEWESDGQPENNYKTTPPVLDSDGSFFLYSKLTVDKSRWEQGDVFSCSVMHEALHNHYTQKSLSLSPGK
heavy 2: QVQLVQSGAEVKKPGASVKVSCKTSGYTFTEYTMHWVRQAPGQSLEWMGGIDPNNGNTHYNQKFQGRVTITVDKSASTAYMELSSLRSEDTAVYYCARIYYFGRLYFDFWGAGTLVTVSSASTKGPSVFPLAPSSKSTSGGTAALGCLVKDYFPEPVTVSWNSGALTSGVHTFPAVLQSSGLYSLSSVVTVPSSSLGTQTYICNVNHKPSNTKVDKKVEPKSCGGGGSGGGGSQAVVTQEPSLTVSPGGTVTLTCGSSTGAVTTSNYANWVQQKPGKSPRGLIGGTNKRAPGVPARFSGSLLGGKAALTISGAQPEDEADYYCALWYSNHWVFGGGTKLTVLGKPGSGKPGSGKPGSGKPGSEVQLVESGGGLVQPGGSLRLSCAASGFTFSTYAMNWVRQAPGKGLEWVGRIRSKYNNYATYYADSVKGRFTISRDDSKNTLYLQMNSLRAEDTAVYYCVRHGNFGDSYVSWFAYWGQGTLVTVSSGGGGSGGGGSKTHTCPPCPAPPVAGPSVFLFPPKPKDTLMISRTPEVTCVVVDVKHEDPEVKFNWYVDGVEVHNAKTKPREEQYNSTYRVVSVLTVLHQDWLNGKEYKCKVSNKALPAPIEKTISKAKGQPREPQVYTLPPSREQMTKNQVKLTCLVKGFYPSDIAVEWESNGQPENNYKTTPPVLDSDGSFFLYSKLTVDKSRWQQGNVFSCSVMHEALHNHYTQKSLSLSPGK
light: not shown
notes: copies: 1 + 1 + 2
B1: the binding result in the assay with human CLDN5 was “no binding”; with human CLDN8, “no binding”; with human CLDN17, “no binding”; with mouse CLDN6 it was “binds”; in the assay with human CLDN6 it was “binds”; with CLDN6 I143V isotype, “binds”.
